The values below are quoted from earlier work in article PMC6620384.

pKd: −log10 of the molar value.

The target of this data set is UNC5B-Fc (UniProt Q8IZJ1). Nature of the data set: SPR.
UniProt Q8IZJ1, sequence (Q8IZJ1 27-377): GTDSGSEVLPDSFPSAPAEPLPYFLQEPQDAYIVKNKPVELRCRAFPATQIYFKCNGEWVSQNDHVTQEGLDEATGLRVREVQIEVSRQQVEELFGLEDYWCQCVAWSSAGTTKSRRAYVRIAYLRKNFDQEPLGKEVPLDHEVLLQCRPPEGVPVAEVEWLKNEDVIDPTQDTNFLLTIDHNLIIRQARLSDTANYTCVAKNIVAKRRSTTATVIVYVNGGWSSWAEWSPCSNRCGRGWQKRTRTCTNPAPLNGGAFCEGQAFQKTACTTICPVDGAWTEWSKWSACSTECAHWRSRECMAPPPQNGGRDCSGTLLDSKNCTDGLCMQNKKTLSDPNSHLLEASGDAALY

Consider Robo4-Fc (from UniProt Q8WZ75), for which the pKd is 7.92.
